Test results taken from patent publication US20050025760A1 (KEIO UNIVERSITY, published 2005).
Substitutions are numbered along the chain they refer to.

Legend:
Assay in all cases: immunoprecipitation of point-mutated molecules (FIG. 5)
[1] = molecular target: T1, Dsg3-M4 (human, UniProt P32926 50-615, E70V; S73F)
T1 construct: extracellular domain; also called point-mutated human Dsg3 molecule M4; not shown: His tag of vector pEVmod-His
T1 sequence (looked up): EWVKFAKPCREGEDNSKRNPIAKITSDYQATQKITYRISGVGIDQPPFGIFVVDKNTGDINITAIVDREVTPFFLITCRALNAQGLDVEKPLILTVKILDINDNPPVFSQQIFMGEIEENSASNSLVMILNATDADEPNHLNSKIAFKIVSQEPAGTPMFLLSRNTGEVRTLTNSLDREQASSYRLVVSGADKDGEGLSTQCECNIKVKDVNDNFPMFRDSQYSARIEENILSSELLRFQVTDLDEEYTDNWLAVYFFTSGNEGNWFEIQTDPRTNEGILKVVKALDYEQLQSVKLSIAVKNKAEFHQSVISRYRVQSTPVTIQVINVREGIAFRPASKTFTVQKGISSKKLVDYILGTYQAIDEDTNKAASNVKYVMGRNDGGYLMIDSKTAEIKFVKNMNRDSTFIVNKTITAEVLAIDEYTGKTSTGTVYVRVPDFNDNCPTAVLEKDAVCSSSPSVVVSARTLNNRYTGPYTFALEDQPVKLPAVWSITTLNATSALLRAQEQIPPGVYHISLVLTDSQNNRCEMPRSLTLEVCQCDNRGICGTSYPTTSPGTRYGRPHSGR

[2] = molecular target: T2, Dsg3-M1 (human, UniProt P32926 50-615, T25H; Y28C; Q29A)
T2 construct: extracellular domain; Dsg3-specific residues changed to the Dsg1-specific ones; also called point-mutated human Dsg3 molecule M1; not shown: His tag of vector pEVmod-His
T2 sequence (looked up): T1 sequence (looked up) with T25H, Y28C, Q29A, V70E, F73S

[3] = molecular target: T3, Dsg1-M7 (human, UniProt Q02413 50-545, I3V; A7K; A8P)
T3 construct: extracellular domain; also called hDsg1-M7
T3 sequence (looked up): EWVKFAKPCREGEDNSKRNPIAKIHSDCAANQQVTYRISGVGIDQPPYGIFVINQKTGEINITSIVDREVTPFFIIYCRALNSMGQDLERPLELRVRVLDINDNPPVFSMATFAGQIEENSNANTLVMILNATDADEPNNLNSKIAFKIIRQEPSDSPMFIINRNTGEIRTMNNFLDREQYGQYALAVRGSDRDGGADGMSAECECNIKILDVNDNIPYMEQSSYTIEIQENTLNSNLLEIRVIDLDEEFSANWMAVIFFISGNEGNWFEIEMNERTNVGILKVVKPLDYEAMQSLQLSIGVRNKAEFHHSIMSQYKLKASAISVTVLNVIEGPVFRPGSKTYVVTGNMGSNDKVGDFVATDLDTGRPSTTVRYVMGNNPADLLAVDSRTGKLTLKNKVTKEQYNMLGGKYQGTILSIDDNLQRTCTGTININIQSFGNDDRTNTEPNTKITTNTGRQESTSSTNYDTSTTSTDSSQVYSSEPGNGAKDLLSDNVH

[4] = molecular target: T4, Dsg3-M6 (human, UniProt P32926 50-615, A83S; Q84M)
T4 construct: extracellular domain; also called point-mutated human Dsg3 molecule M6; not shown: His tag of vector pEVmod-His
T4 sequence (looked up): T1 sequence (looked up) with V70E, F73S, A83S, Q84M

binding result [1]: binds
binding result [2]: binds
binding result [3]: no binding
binding result [4]: binds
B1: anti-Dsg3 monoclonal antibody AK23 (antibody, mouse IgG1, V domains shown)
VH: QVQLQQSGTELVKPGASVKLSCKSSGYTFTSYWINWVKQRPGQGLEWIGNINPSNGGINYNEKFKSKATLTVDKSSSTAYMQLKSLTSEDSAVYYCARGGYDGYPWGQGTTVTVS
VL: DIQMTQSPKFLLVSAGDRVTITCKASQSVSYDVAWYQQKPGQSPKLLISYASNRYTGVPDRFTGSGYGSDFTFTISTVQTEDLAVYFCQQDYSSPWTFGGGTKLELKR
notes: Mouse IgG1 kappa hybridoma antibody
